In paper PMC6411374, “Substrate channeling in oxylipin biosynthesis through a protein complex in the plastid envelope of Arabidopsis thaliana” (Journal of Experimental Botany, 2019):

T1: AOS (CYP74A) (Arabidopsis thaliana, UniProt Q96242)
T1 construct: free enzyme from SDS-dissociated, dialyzed envelope complex; bacterially expressed C-terminal (His)6 AOS, imported into Arabidopsis chloroplasts (transit peptide cleaved)
T1 sequence (Q96242 34-518): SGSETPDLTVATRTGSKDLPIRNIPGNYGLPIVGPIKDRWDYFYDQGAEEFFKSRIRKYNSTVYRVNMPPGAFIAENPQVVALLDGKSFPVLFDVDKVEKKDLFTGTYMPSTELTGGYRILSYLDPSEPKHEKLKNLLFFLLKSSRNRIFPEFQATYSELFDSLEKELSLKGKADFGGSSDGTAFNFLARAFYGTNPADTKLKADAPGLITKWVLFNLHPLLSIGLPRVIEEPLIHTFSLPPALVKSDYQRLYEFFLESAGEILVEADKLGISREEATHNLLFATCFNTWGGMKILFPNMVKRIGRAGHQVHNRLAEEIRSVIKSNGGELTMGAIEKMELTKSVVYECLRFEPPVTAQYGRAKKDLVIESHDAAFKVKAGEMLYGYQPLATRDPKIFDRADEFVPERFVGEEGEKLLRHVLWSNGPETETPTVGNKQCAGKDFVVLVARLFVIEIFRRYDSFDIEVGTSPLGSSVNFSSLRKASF

T2: C-terminal, (His)6-tagged allene oxide synthase [AOS-(His)6] (A. thaliana, UniProt Q96242 34-518)
T2 sequence (looked up): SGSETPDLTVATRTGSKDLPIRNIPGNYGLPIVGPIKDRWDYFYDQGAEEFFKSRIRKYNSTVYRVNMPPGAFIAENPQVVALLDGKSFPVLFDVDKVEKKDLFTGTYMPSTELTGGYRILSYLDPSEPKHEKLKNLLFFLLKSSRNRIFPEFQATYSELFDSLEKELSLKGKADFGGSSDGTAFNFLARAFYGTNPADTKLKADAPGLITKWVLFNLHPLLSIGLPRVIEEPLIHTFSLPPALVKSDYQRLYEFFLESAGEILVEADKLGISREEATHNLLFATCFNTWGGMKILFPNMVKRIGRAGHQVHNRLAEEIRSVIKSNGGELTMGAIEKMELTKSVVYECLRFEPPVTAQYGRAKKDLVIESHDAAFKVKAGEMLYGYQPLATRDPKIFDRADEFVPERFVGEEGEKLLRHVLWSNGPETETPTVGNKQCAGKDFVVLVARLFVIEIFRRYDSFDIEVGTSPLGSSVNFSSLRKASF

T3: soluble, catalytically active AOS used for reconstitution of the complex (A. thaliana, UniProt Q96242 34-518)
T3 construct: allene oxide synthase (AOS, CYP74A), A. thaliana
T3 sequence: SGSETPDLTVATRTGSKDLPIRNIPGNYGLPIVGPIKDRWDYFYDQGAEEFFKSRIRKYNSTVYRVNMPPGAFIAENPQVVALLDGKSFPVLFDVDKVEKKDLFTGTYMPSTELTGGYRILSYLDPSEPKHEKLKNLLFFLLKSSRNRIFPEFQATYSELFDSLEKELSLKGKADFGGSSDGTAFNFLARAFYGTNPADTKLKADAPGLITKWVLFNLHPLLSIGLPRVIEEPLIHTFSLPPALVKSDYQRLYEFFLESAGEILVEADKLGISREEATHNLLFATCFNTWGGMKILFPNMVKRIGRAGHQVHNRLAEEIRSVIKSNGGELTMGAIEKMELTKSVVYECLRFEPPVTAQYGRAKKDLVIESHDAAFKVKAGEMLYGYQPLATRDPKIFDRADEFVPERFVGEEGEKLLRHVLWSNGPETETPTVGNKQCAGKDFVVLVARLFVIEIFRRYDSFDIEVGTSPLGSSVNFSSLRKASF


Columns and labels:
AOS (CYP74A) = biological target: T1, AOS (CYP74A); test: cis-(+)-12-OPDA formation by free enzymes, HPLC / GC-MS; format: biochemical; details: free enzymes (SDS-dissociated, dialyzed complex), read-out coupled through AOC2; 10 min
[1] = biological target: LOX2-AOS-AOC2 plastid envelope complex (Arabidopsis thaliana, UniProt P38418); details: intact complex, coupled LOX2-AOS-AOC2 turnover; α-LeA is the LOX2 substrate
[2] = biological target: T2, C-terminal, (His)6-tagged allene oxide …; test: cell-based or functional assay
[3] = biological target: T2, C-terminal, (His)6-tagged allene oxide …; test: pull-down; purified (His)6-tagged bait imported into isolated Arabidopsis chloroplasts (2.5 mM Mg-ATP); mixed envelopes solubilised with 1.3% decyl maltoside; Ni-NTA affinity chromatography, size exclusion on Superose 6 (peak I, ~250 kDa); co-purified bands identified by SDS-PAGE with protein sequencing, LOX2 also by western blot; details: one partner purified
[4] = biological target: T3, soluble, catalytically active AOS used …; test: reconstitution of the complex in vitro; complex reconstituted from soluble, catalytically active LOX2, AOS and AOC2 and isolated plastid envelope lipids (Supplementary Fig. S8)
[5] = biological target: the molecule itself; test: SDS-PAGE with protein sequencing; bands of the proteins co-purified with AOS-(His)6 in peak I; ~72 kDa and ~24 kDa bands both sequenced as AOC2

Molecule	rate of cis-(+)-12-OPDA formation from α-LeA by the intact LOX2-AOS-AOC2 envelope complex against the free-enzyme assay (complex dissociated with SDS and dialysed) [2]	stoichiometry N [3]	stoichiometry N [4]	other results
CC/C=C\C[C@@H](/C=C/C=C\CCCCCCCC(=O)O)OO [13-HPOT, (9Z11E15Z13S)-13-hydroperoxy-9,11,15-octadecatrienoic acid]				cis-(+)-12-OPDA formation by free enzymes, HPLC / GC-MS (AOS (CYP74A)): but it was accepted in the free-enzyme assay (Fig. 5C)
CC/C=C\C/C=C\C/C=C\CCCCCCCC(=O)O [α-linolenic acid]				cis-(+)-12-OPDA formation by isolated complex, HPLC / GC-MS [1]: α-LeA was converted to cis-(+)-12-OPDA by the isolated, intact (non-SDS-dissociated) plastid envelope complex
lipoxygenase 2 (LOX2), endogenous in the envelope of Arabidopsis chloroplasts (enzyme, UniProt P38418 57-896, looked up, lipoxygenase 2 (LOX2), A. thaliana, ~100 kDa band of the plastid envelope; also called 13-lipoxygenase; source: endogenous, envelopes of isolated Arabidopsis chloroplasts) ANIEQEGNTVKEPIQNIKVKGYITAQEEFLEGITWSRGLDDIADIRGRSLLVELISAKTDQRITVEDYAQRVWAEAPDEKYECEFEMPEDFGPVGAIKIQNQYHRQLFLKGVELKLPGGSITFTCESWVAPKSVDPTKRIFFSDKSYLPSQTPEPLKKYRKEELETLQGKNREEVGEFTKFERIYDYDVYNDVGDPDNDPELARPVIGGLTHPYPRRCKTGRKPCETDPSSEQRYGGEFYVPRDEEFSTAKGTSFTGKAVLAALPSIFPQIESVLLSPQEPFPHFKAIQNLFEEGIQLPKDAGLLPLLPRIIKALGEAQDDILQFDAPVLINRDRFSWLRDDEFARQTLAGLNPYSIQLVEEWPLISKLDPAVYGDPTSLITWEIVEREVKGNMTVDEALKNKRLFVLDYHDLLLPYVNKVRELNNTTLYASRTLFFLSDDSTLRPVAIELTCPPNINKPQWKQVFTPGYDATSCWLWNLAKTHAISHDAGYHQLISHWLRTHACTEPYIIAANRQLSAMHPIYRLLHPHFRYTMEINARARQSLVNGGGIIETCFWPGKYALELSSAVYGKLWRFDQEGLPADLIKRGLAEEDKTAEHGVRLTIPDYPFANDGLILWDAIKEWVTDYVKHYYPDEELITSDEELQGWWSEVRNIGHGDKKDEPWWPVLKTQDDLIGVVTTIAWVTSGHHAAVNFGQYGYGGYFPNRPTTTRIRMPTEDPTDEALKEFYESPEKVLLKTYPSQKQATLVMVTLDLLSTHSPDEEYIGEQQEASWANEPVINAAFERFKGKLQYLEGVIDERNVNITLKNRAGAGVVKYELLKPTSEHGVTGMGVPYSISI	120 fold	1		
soluble, catalytically active LOX2 used for reconstitution of the complex (enzyme, A. thaliana, UniProt P38418 57-896, looked up, lipoxygenase 2 (LOX2), A. thaliana) ANIEQEGNTVKEPIQNIKVKGYITAQEEFLEGITWSRGLDDIADIRGRSLLVELISAKTDQRITVEDYAQRVWAEAPDEKYECEFEMPEDFGPVGAIKIQNQYHRQLFLKGVELKLPGGSITFTCESWVAPKSVDPTKRIFFSDKSYLPSQTPEPLKKYRKEELETLQGKNREEVGEFTKFERIYDYDVYNDVGDPDNDPELARPVIGGLTHPYPRRCKTGRKPCETDPSSEQRYGGEFYVPRDEEFSTAKGTSFTGKAVLAALPSIFPQIESVLLSPQEPFPHFKAIQNLFEEGIQLPKDAGLLPLLPRIIKALGEAQDDILQFDAPVLINRDRFSWLRDDEFARQTLAGLNPYSIQLVEEWPLISKLDPAVYGDPTSLITWEIVEREVKGNMTVDEALKNKRLFVLDYHDLLLPYVNKVRELNNTTLYASRTLFFLSDDSTLRPVAIELTCPPNINKPQWKQVFTPGYDATSCWLWNLAKTHAISHDAGYHQLISHWLRTHACTEPYIIAANRQLSAMHPIYRLLHPHFRYTMEINARARQSLVNGGGIIETCFWPGKYALELSSAVYGKLWRFDQEGLPADLIKRGLAEEDKTAEHGVRLTIPDYPFANDGLILWDAIKEWVTDYVKHYYPDEELITSDEELQGWWSEVRNIGHGDKKDEPWWPVLKTQDDLIGVVTTIAWVTSGHHAAVNFGQYGYGGYFPNRPTTTRIRMPTEDPTDEALKEFYESPEKVLLKTYPSQKQATLVMVTLDLLSTHSPDEEYIGEQQEASWANEPVINAAFERFKGKLQYLEGVIDERNVNITLKNRAGAGVVKYELLKPTSEHGVTGMGVPYSISI			1	
allene oxide cyclase 2 (AOC2), endogenous in the envelope of Arabidopsis chloroplasts (enzyme, UniProt Q9LS02 78-253, looked up, allene oxide cyclase 2 (AOC2), A. thaliana, ~72 kDa (SDS-resistant trimer) and ~24 kDa (monomer) bands of the plastid envelope; Found both as trimer and as monomer; source: endogenous, envelopes of isolated Arabidopsis chloroplasts) PSKVQELSVYEINELDRHSPKILKNAFSLMFGLGDLVPFTNKLYTGDLKKRVGITAGLCVVIEHVPEKKGERFEATYSFYFGDYGHLSVQGPYLTYEDSFLAITGGAGIFEGAYGQVKLQQLVYPTKLFYTFYLKGLANDLPLELTGTPVPPSKDIEPAPEAKALEPSGVISNYTN	120 fold	4		stoichiometry N [5]: 3
soluble, catalytically active AOC2 used for reconstitution of the complex (enzyme, A. thaliana, allene oxide cyclase 2 (AOC2), A. thaliana) PSKVQELSVYEINELDRHSPKILKNAFSLMFGLGDLVPFTNKLYTGDLKKRVGITAGLCVVIEHVPEKKGERFEATYSFYFGDYGHLSVQGPYLTYEDSFLAITGGAGIFEGAYGQVKLQQLVYPTKLFYTFYLKGLANDLPLELTGTPVPPSKDIEPAPEAKALEPSGVISNYTN			4	
